Paper PMC8069203, “Highly Sensitive Electrochemical Aptasensor for Detecting the VEGF165 Tumor Marker with PANI/CNT Nanocomposites”

Molecular target: VEGF165 (UniProt P15692-4 27-191)
Experiment: electrochemical aptasensor; PANI/CNT electrode; linear 0.5 pg/mL to 1 ug/mL, LOD 0.4 pg/mL (not a Kd); PBS rinsing, ferri/ferrocyanide redox probe; aptamer immobilized on PANI/CNT screen-printed carbon electrode; pH, salt and temperature not given in the material
Conditions: protein: commercial; chain copies: 2

Chain of VEGF165 (P15692 other isoform, or with tags, fused parts or gaps): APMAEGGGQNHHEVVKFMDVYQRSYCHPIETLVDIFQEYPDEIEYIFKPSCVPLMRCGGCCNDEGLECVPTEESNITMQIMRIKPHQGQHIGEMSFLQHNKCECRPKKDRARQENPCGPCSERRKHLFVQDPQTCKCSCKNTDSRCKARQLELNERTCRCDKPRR

B1: anti-VEGF165 RNA aptamer (structured_RNA)
RNA: AUGCAGUUUGAGAAGUCGCGCAU
modifications: 5'-NH2, coupled by amide bond to PANI/CNT carboxyl groups (DMT-MM)
  binding result: binds
